Data on one substance can be found in patent publication US20130115676.

Assay in all cases: cleavage_in_vitro
Data set [1] relates to T1, SbfI (Streptomyces species Bf-61?).
T1 sequence: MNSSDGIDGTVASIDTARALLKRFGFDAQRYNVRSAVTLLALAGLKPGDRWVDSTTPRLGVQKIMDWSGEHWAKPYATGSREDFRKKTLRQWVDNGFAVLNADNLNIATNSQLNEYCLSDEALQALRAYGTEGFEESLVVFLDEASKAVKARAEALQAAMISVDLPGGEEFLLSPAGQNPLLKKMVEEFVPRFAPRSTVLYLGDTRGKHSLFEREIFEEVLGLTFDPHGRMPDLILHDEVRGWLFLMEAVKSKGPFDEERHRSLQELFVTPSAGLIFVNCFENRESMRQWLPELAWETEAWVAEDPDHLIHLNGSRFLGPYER
The conditions noted are these: NEB1, 10 mM MgCl2, 37 C.

The subject of data set [2] is T2, SphI (Streptomyces phaeochromogenes).
T2 sequence: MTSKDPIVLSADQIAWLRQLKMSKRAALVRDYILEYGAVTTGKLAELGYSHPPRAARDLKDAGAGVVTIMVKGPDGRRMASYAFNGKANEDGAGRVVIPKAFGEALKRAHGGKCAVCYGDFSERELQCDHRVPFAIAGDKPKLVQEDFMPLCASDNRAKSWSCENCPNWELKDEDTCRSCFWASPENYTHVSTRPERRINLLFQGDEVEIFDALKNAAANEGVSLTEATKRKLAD
The conditions noted are these: NEB1, 10 mM MgCl2, 37 C.

For data set [3], the system named is T3, SbfI-HF K251A (Streptomyces species Bf-61?).
T3 sequence: T1 sequence with K251A
The note with it: NEB1, 10 mM MgCl2, 37 C.

Data set [4] has as its system T4, SspI-HF Y98F (Sphaerotilus species).
T4 sequence: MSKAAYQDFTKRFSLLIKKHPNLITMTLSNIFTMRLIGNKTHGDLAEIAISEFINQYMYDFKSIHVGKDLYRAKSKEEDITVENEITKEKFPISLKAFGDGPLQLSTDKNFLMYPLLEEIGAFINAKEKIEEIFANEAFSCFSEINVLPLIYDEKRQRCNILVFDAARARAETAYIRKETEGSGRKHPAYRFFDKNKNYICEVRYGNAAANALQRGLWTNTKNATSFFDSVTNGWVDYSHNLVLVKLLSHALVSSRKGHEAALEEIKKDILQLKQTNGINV
The note with it: NEB4, 10 mM Mg acetate, 37 C.

Data set [5] relates to T5, SphI-HF K100A (Streptomyces phaeochromogenes).
T5 sequence: T2 sequence with K100A
The note with it: NEB4, 10 mM Mg acetate, 37 C.

Data set [6] deals with T6, PstI-HF D91A (Providencia stuartii 164) (UniProt P00640).
T6 sequence: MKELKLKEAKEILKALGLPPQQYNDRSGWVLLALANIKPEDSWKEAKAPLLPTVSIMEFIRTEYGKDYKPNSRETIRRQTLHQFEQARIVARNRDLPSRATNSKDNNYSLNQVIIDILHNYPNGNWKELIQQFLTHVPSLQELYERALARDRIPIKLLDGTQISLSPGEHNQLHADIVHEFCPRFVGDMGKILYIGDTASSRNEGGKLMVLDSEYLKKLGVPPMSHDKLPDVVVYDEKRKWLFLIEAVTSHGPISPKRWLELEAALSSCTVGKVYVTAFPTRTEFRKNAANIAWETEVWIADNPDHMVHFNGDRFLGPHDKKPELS
The note with it: NEB4, 10 mM Mg acetate, 37 C.

Data set [7] relates to T7, SapI (Saccharopolyspora sp.).
T7 sequence: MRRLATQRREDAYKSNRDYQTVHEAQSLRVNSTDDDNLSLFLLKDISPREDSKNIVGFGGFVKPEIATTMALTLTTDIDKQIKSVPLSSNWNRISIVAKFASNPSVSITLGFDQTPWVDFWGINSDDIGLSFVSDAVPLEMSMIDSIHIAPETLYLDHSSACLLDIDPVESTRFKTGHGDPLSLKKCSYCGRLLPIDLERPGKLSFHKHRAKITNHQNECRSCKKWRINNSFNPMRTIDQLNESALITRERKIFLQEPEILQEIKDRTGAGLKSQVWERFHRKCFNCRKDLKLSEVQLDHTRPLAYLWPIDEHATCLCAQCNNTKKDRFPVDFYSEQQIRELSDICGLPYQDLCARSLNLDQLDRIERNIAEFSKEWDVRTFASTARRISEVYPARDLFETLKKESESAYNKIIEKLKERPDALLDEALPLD
The note with it: NEB4, 10 mM Mg acetate, 37 C.

Data set [8] concerns the target T8, ScaI (Streptomyces caespitosus) (UniProt O52691).
T8 sequence: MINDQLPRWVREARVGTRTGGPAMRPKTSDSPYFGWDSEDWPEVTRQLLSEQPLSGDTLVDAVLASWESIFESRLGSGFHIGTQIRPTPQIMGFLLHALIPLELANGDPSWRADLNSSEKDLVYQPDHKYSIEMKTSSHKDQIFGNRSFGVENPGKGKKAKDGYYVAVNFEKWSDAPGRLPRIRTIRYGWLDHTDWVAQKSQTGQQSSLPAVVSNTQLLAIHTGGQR
The note with it: NEB2, 10 mM MgCl2, 37 C; printed as 1/8.

Another data set has as its system BstXI-HF N65A. The note with it: NEB4, 10 mM Mg acetate, 55 C.
Data set [9] has as its target EcoRI (Escherichia coli RY13) (UniProt P00642). The note with it: NEB3, 10 mM MgCl2, 37 C.

Where a chain is given by its changes, count along the chain named. Where only a bound is given, the exact number is not on record here.

For the substance lambda DNA, the activity (fidelity index) in data set [1] was found to be 32; in data set [2] it was 64; in [3], 1000; in [4], 500; in data set [5], 8000; in data set [6], 4000. Moreover, the activity (fidelity index) in data set [7] was 16; in data set [8] it was 0.125; in the data set with BstXI-HF N65A it was greater than 250; in [9], 250.
